Data as given in US20190248848A1.

Experiments:
[1] = target: histone H3 trimethylated at lysine 27 (H3K27me3) in cellular chromatin at the Tk-luciferase reporter of HEK293 Gal4-EED/luc cells; experiment: cell-based or functional assay
[2] = target: biotinylated histone H3 peptide trimethylated at lysine 27, H3K27me3 (21-44) (UniProt P68431); experiment: histone peptide microspot array, 10 and 20 µM spotted H3K27me3

| Substance | luciferase activity, Tk-luciferase reporter, HEK293 Gal4-EED/luc cells, 96 hours dox (fold against PcTF) [1] | fold smaller Kd^app than PcTF [2] |
| --- | --- | --- |
| Pc2TF with the flexible linker (GGGGS)4 (MV10 mammalian expression construct, expressed in HEK293 Gal4-EED/luc cells) (from UniProt Q9HC52 1-62; Q9HC52 1-62) (designed binder) | 2 | – |
| Pc2TF, bivalent Polycomb-based transcription factor with the flexible linker (GGGGS)4 (pET28 construct; TXTL-expressed or purified from E. coli) (from UniProt Q9HC52 1-62; Q9HC52 1-62) (designed binder) | – | 2 fold |
